Test [1] concerns the target T1, human OX40 on cells (human, UniProt P43489 29-277).
T1 sequence: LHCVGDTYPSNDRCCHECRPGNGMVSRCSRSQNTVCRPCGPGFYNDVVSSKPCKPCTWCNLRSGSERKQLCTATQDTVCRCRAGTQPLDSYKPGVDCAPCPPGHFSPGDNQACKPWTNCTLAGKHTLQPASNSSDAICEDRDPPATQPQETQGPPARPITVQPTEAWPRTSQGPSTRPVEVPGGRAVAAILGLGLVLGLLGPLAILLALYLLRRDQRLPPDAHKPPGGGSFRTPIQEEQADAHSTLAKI
The test can be described thus: cell-based or functional assay.

The target in test [2] is T1, human OX40 on cells. The test can be described thus: cell-based or functional assay. The source holds these as a separate data set.
The target of test [3] is T2, cynomolgus OX40 on cells (cynomolgus, UniProt P43489 29-277 (human entry)).
T2 construct: also called cynoOX40-CHO
T2 chain: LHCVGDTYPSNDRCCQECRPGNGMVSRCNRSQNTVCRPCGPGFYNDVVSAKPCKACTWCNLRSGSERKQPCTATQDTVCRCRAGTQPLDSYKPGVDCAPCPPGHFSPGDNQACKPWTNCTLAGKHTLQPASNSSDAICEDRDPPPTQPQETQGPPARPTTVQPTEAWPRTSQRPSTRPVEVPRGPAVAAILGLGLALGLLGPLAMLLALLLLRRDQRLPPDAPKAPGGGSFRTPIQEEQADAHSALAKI
Description: FACS, activated cyno CD4 T cells. The method, then:
(§1) Briefly, cells were activated for several days before the binding assay in order to induce OX40 expression. Total leukocytes were isolated from cynomolgus macaque peripheral blood by lysis of red blood cells using an ammonium chloride buffer. The leukocytes were then cultured for four to five days with in flasks pre-coated with anti-human CD3 plus anti-human CD28 antibodies that cross-react with cynomolgus macaque, in the presence of recombinant human IL-2, in order to expand and activate T cells. On the day of the assay, the cells were harvested and stained with a titration of each anti-OX40 antibody. Bound antibodies were detected with a fluorescently conjugated anti-human IgG polyclonal secondary antibody, and the cells were co-stained for CD4 and CD25 to detect activated CD4 T cells. The fluorescence intensity of the staining was measured using a FACSCanto II flow cytometer (Becton Dickinson). The geometric mean fluorescence intensity (GMFI) or median fluorescence intensity (MedFI) of anti-OX40 antibody staining was calculated for the CD4+CD25+ population (FACSDiva software). Dose-response curves were generated and EC50s for antibody binding were calculated using GraphPad Prism software.
The same experiment was performed with anti-OX40 antibodies with variable region substitutions.

Test [4] deals with T2, cynomolgus OX40 on cells. Description: FACS, activated cyno T cells; mean ± SD, n=5. The protocol:
as §1

Test [5] concerns the target T1, human OX40 on cells. Description: FACS, activated human T cells; mean ± SD, n=7. (In general: In flow cytometry, cells or beads pass a laser one at a time.)
Test [6] addresses T1, human OX40 on cells. Description: FACS competition on hOX40-293 cells against biotin-OX40.5 (spike biotOX.5 @ 1.0 ug/mL, streptavidin-APC); partial inhibition, FL4-MFI falls from about 29000 to about 17000; the table gives no unit, axis in nM.
The target of test [7] is T1, human OX40 on cells. The test can be described thus: FACS, activated human T cells; mean ± SD, n=2. The protocol:
Cells were activated for several days before the binding assay in order to induce OX40 expression. Briefly, PBMCs were cultured for three or four days with magnetic beads coated with anti-human CD3 plus anti-human CD28, in the presence of recombinant human IL-2. On the day of the assay, the beads were removed and the cells stained with a titration of each anti-OX40 antibody. Bound antibodies were detected with a fluorescently conjugated anti-human IgG polyclonal secondary antibody, and the cells were co-stained for CD4 and CD25 to detect activated CD4 T cells. The fluorescence intensity of the staining was measured using a FACSCanto II flow cytometer (Becton Dickinson). The geometric mean fluorescence intensity (GMFI) or median fluorescence intensity (MedFI) of anti-OX40 antibody staining was calculated for the CD4+CD25+ population (FACSDiva software). EC₅₀s for antibody binding were calculated using GraphPad Prism software.

The target of test [8] is T3, his-tagged soluble human OX40 (huOX40-6xhis) (human, UniProt P43489 29-214).
T3 construct: made in-house; also called Human-OX40-6XHIS; hOX40; not shown: hexahistidine tag
T3 sequence: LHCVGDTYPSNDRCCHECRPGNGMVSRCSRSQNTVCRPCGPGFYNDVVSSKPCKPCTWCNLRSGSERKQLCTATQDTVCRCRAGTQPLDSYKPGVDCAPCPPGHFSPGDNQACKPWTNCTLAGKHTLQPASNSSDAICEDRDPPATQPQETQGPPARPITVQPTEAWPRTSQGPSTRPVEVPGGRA
The test can be described thus: SPR, mAb captured on anti-human CH1, OX40-6XHIS analyte, 1:1 fit. The protocol:
The affinity of several OX40 antibodies for soluble human OX40 was tested by SPR analysis. […] Human-OX40-6XHIS antigen in either a single concentration of 400 nM or a 1:2 serial dilution from 400 nM was used. Experiments were carried out on BIACORE® T200 or BIACORE® 3000 SPR instruments. Data was fit to a 1:1 model.

The target of test [9] is T1, human OX40 on cells. Description: FACS, blocking of OX40L-His (0.2 µg/mL) binding to hOX40-293 cells. The method, then: Briefly, 293 cells stably transfected with human OX40 were first pre-incubated with varying concentrations of anti-OX40 antibodies. […] The fluorescence intensity of the staining was measured using a FACSCanto II flow cytometer (Becton Dickinson).

For test [10], the target named is T1, human OX40 on cells. Description: FACS competition on hOX40-293 cells: unlabeled antibody first, then PE-labeled L106 (2.5 ug/mL per the text). The protocol:
Briefly, 293 cells stably transfected with human OX40 were first incubated with varying concentrations of unlabeled anti-OX40 antibodies. […] The fluorescence intensity of the staining was measured using a FACSCanto II flow cytometer (Becton Dickinson).

Test [11] addresses T2, cynomolgus OX40 on cells. The test can be described thus: FACS, activated cyno T cells; mean ± SD, n=4; mean ± SD of n=4 experiments (Table 8), not the single experiment of FIGS. 12A and 12B. The method, then:
as §1

For test [12], the target named is T2, cynomolgus OX40 on cells. The test can be described thus: FACS, activated cyno T cells; n=1. The method, then: as §1
The target of test [13] is T1, human OX40 on cells. The test can be described thus: FACS competition on HT1080-hOX40 cells against APC-OX40.1 (FL2 MFI); the table gives no unit, axis 'Ab conc nM'. The protocol: This experiment was performed to test the cross-blocking properties of various anti-OX40 antibodies to assess binding specificities. […] Cells were washed and if necessary further incubated in the presence of streptavidin-APC conjugate under the same conditions. After the final wash, cells were analyzed on a FACSCanto flow cytometer (BD Bioscience, San Jose, Calif.). Mean fluorescence intensity (MFI) signal was proportional to bound conjugated antibody.

B1: OX40.6 (antibody, human IgG1, kappa, V domains shown)
VH: EVQLVQSGGGLVQPGGSLRLSCAGSGFTFSNYAMYWVRQAPGKGLEWVSAIGIGGDTFYTDSVKGRFTISRDNAKNSLSLQMNSLRAEDTAVYYCARMGTGYFFDYWGQGTLVTVSS
VL: EIVLTQSPATLSLSPGERATLSCRASQSVSSYLAWYQQKPGQAPRLLIYDASNRATGIPARFSGSGSGTDFTLTISSLEPEDFAVYYCQQRSNWPLTFGPGTKVDIKR
Take B1: in the test with human OX40 on cells [1], the “IFNγ EC50, CD4 T cells + CHO-CD3-CD32A” value was 0.033 nM and the “Proliferation EC50, CD4 T cells + CHO-CD3-CD32A” value (“Proliferation EC50” below) stood at 0.032 nM. Further, in the test with human OX40 on cells [2], the “IL-2 EC50, SEB PBMC, donor BMS-001” value was found to be 0.49 nM; the “IL-2 EC50, SEB PBMC, donor BMS-004” value was 0.48 nM; the “IL-2 EC50, SEB PBMC, donor BMS-009” value was 0.45 nM; the “IL-2 EC50, SEB PBMC, donor BMS-012” value was found to be 0.66 nM. Also, in the test with human OX40 on cells [2], the “IL-2 EC50, SEB PBMC, donor BMS-015” value is around 0.46 nM; the “IL-2 EC50, SEB PBMC, donor BMS-016” value was 0.29 nM; the “IL-2 EC50, SEB PBMC, donor WB10024” value is around 0.42 nM; the “IL-2 EC50, SEB PBMC, donor WB10025” value was around 0.85 nM. In the test with human OX40 on cells [2], the “IL-2 EC50, SEB PBMC, donor WB10026” value was 0.28 nM; the “IL-2 EC50, SEB PBMC, donor WB10027” value worked out at 0.45 nM; the “IL-2 EC50, SEB PBMC, donor WB10137” value was 0.56 nM; the “IL-2 Mean EC50, SEB PBMC, all donors” value was 0.46 nM. The molecule further had an EC50 with cynomolgus OX40 on cells [3] of at most 0.12 nM. For the same molecule, in the test with cynomolgus OX40 on cells [4], the EC50 came to 0.11 nM. In the test with human OX40 on cells [5], this molecule gave an EC50 of 0.13 nM. The molecule also returned an EC50 in the test with human OX40 on cells [6] of 0.857 nM.

B2: 18E9 (antibody, V domains shown)
VH: EVQLVQSGGGLVHPGGSLRLSCAHSGFTFTSSAMHWVRQAPGKGLEWISAIGTGGDTYYADSVKGRFTISRDNAKNSLYLQINSLRAEDMAVYYCARDFYDILTGIFDYWGQGTLVTVSS
VL: DIQMTQSPSSVSASVGDRVTITCRASQGISSWLAWYQHKPGKAPKLLIYAASSLQSGVPSRFSGSGSGTDFTLTISSLQPEDFATYYCQQANSFPSTFGQGTKVEIK
notes: human mAb from hybridoma; also called 18E9.G5.H4; 18E9.G5
As for B2, in the test with human OX40 on cells [1], the “Proliferation EC50” value was determined as 0.01 nM. The EC50 was 1 to 1.5 nM with cynomolgus OX40 on cells [3], 0.22 nM with human OX40 on cells [7], 0.48 nM in the test with human OX40 on cells [9] and 41.7 nM with cynomolgus OX40 on cells [11]. Besides, binding in [8] was put at a Kd of 2.04 nM. In addition, in test [8], the dissociation rate constant (koff) worked out at 0.000139 s⁻¹. In [8], this molecule displayed a kon of 68300 M⁻¹ s⁻¹. In addition, in the test with human OX40 on cells [10], the “IC50 (read off the curve)” value is around 1 µg/mL.

B3: 14B6 (antibody, V domains shown)
VH: EVQLEQSGAEVKKPGESLKISCKGSGYSFTSNWIGWVRQMPGKGLEWMGFIYPGDSDTRYSPSFQGQVTISADKSISTAYLQWSSLKASDIAMYYCARYGDDWYFDLWGRGTLVTVSS
VL: EIVLTQSPATLSLSPGERATLSCRASQSVSSYLAWFQQRPGQAPRLLIYDASNRATGIPARFSGSGSGTDFSLTISSLEPEDFAVYYCQQRGDWPITFGQGTRLEIK
notes: also called 14B6.C5.C8; 14B6.C5
For B3, the “Proliferation EC50” value with human OX40 on cells [1] was 0.012 nM. In addition, in the test with cynomolgus OX40 on cells [12], the midpoint of the response, the EC50, lay at 0.31 nM. Moreover, the midpoint of the response with human OX40 on cells [7], the EC50, lay at 0.18 nM. In addition, in [8], the affinity, expressed as Kd, was 8.84 nM; the koff amounted to 0.000654 s⁻¹; the kon is 74000 M⁻¹ s⁻¹. For the same molecule, in the test with human OX40 on cells [9], the EC50 is 1 nM. Also, the IC50 with human OX40 on cells [13] is 0.7 nM.

As usually defined, the EC50 is the concentration needed to bring the measured effect to its halfway point. A higher EC50 goes with a less potent agent. For orientation: Kd means the equilibrium constant for the complex coming apart. Higher therefore signals a looser complex. As usually defined, the koff is a measure of how fast the partners let go of each other. Read a low koff as a long-lived complex. Usually kon stands for the rate constant with which the complex forms. In general, IC50 refers to the concentration that gives 50% inhibition. Read a high IC50 as weaker potency.

The values above are taken from patent US20200399385A1 (Bristol-Myers Squibb, published 2020).
